Measured values: IntAct's records for PubMed 18480252

B1: [PIN+] prion protein RNQ1 (Saccharomyces cerevisiae), P25367 (parent)
chain: MDTDKLISEAESHFSQGNHAEAVAKLTSAAQSNPNDEQMSTIESLIQKIAGYVMDNRSGGSDASQDRAAGGGSSFMNTLMADSKGSSQTQLGKLALLATVMTHSSNKGSSNRGFDVGTVMSMLSGSGGGSQSMGASGLAALASQFFKSGNNSQGQGQGQGQGQGQGQGQGQGSFTALASLASSFMNSNNNNQQGQNQSSGGSSFGALASMASSFMHSNNNQNSNNSQQGYNQSYQNGNQNSQGYNNQQYQGGNGGYQQQQGQSGGAFSSLASMAQSYLGGGQTQSNQQQYNQQGQNNQQQYQQQGQNYQHQQQGQQQQQGHSSSFSALASMASSYLGNNSNSNSSYGGQQQANEYGRPQQNGQQQSNEYGRPQYGGNQNSNGQHESFNFSGNFSQQNNNGNQNRY
partner: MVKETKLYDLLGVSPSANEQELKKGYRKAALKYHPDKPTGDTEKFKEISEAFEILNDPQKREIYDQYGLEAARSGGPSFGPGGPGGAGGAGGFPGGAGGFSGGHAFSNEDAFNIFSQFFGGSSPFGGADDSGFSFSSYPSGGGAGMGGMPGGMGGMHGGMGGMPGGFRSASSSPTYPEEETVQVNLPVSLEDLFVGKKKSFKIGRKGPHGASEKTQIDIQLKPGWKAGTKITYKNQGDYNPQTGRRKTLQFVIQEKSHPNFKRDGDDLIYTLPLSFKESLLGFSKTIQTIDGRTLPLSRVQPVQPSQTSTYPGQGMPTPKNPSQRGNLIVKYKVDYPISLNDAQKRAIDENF

Variants of: B1
Conditions: with sis1_yeast SIS1, P25294

Q: With L94A as the variant, how does the “effect of a mutation on the interaction” value read?
A: decreasing interaction
